Assay results reported in the Immune Epitope Database (IEDB).
Blank lines part the entries; values can stand above or below the sequence they belong to.

Tests used:
[1] = target: HLA-B*58:01; assay: IEDB peptide-MHC binding, purified MHC/competitive/radioactivity; filed as Kd, often an IC50 or EC50 that approximates it; ≥ and ≤ were set here for values at or beyond the usual limits of such assays
[2] = target: HLA-B*57:01; assay: as above
[3] = target: HLA-B*15:17; assay: IEDB peptide-MHC binding, purified MHC/direct/fluorescence; filed as Kd, often an IC50 or EC50 that approximates it; ≥ and ≤ were set here for values at or beyond the usual limits of such assays
[4] = target: HLA-B*57:01; assay: as above
[5] = target: HLA-B*58:01; assay: as above
[6] = target: HLA-A*26:01; assay: IEDB peptide-MHC binding, purified MHC/competitive/radioactivity; filed as Kd, often an IC50 or EC50 that approximates it; ≥ and ≤ were set here for values at or beyond the usual limits of such assays
[7] = target: HLA-B*53:01; assay: as above; conditions: source organism: Dengue virus 4 Philippines/H241/1956
[8] = target: HLA-A*32:01; assay: as above; conditions: source organism: Dengue virus 2 Jamaica/1409/1983
[9] = target: HLA-A*26:01; assay: IEDB peptide-MHC binding, purified MHC/direct/fluorescence; filed as Kd, often an IC50 or EC50 that approximates it; ≥ and ≤ were set here for values at or beyond the usual limits of such assays
[10] = target: HLA-A*24:03; assay: as above
[11] = target: HLA-B*08:01; assay: as above
[12] = target: HLA-A*02:01; assay: as above
[13] = target: HLA-B*27:05; assay: as above
[14] = target: HLA-A*03:01; assay: as above
[15] = target: HLA-B*07:02; assay: as above
[16] = target: HLA-B*15:01; assay: as above
[17] = target: HLA-A*69:01; assay: as above
[18] = target: HLA-A*01:01; assay: as above
[19] = target: HLA-A*31:01; assay: as above
[20] = target: HLA-A*11:01; assay: as above
[21] = target: HLA-B*40:01; assay: as above
[22] = target: HLA-B*44:02; assay: as above
[23] = target: HLA-A*68:02; assay: as above; conditions: source organism: Escherichia coli O157:H7
[24] = target: HLA-B*48:01; assay: as above; conditions: source organism: Escherichia coli O157:H7
[25] = target: HLA-B*18:01; assay: as above; conditions: source organism: Escherichia coli O157:H7
[26] = target: HLA-A*24:02; assay: IEDB peptide-MHC binding, purified MHC/competitive/radioactivity; filed as Kd, often an IC50 or EC50 that approximates it; ≥ and ≤ were set here for values at or beyond the usual limits of such assays
[27] = target: HLA-A*26:01; assay: IEDB peptide-MHC binding, purified MHC/competitive/fluorescence; filed as Kd, often an IC50 or EC50 that approximates it; ≥ and ≤ were set here for values at or beyond the usual limits of such assays
[28] = target: HLA-B*39:01; assay: as above
[29] = target: HLA-B*51:01; assay: as above
[30] = target: HLA-B*27:03; assay: as above
[31] = target: HLA-A*02:01; assay: as above
[32] = target: HLA-A*69:01; assay: as above
[33] = target: HLA-B*46:01; assay: as above
[34] = target: HLA-A*68:02; assay: IEDB peptide-MHC binding, purified MHC/competitive/radioactivity; filed as Kd, often an IC50 or EC50 that approximates it; ≥ and ≤ were set here for values at or beyond the usual limits of such assays; conditions: source organism: Dengue virus 2 Jamaica/1409/1983
[35] = target: HLA-A*01:01; assay: as above; conditions: source organism: Dengue virus 1 Brazil/97-11/1997
[36] = target: HLA-A*23:01; assay: as above; conditions: source organism: Dengue virus 1 Brazil/97-11/1997
[37] = target: HLA-B*57:01; assay: IEDB peptide-MHC binding, purified MHC/competitive/fluorescence; filed as Kd, often an IC50 or EC50 that approximates it; ≥ and ≤ were set here for values at or beyond the usual limits of such assays; conditions: source organism: Macaca mulatta
[38] = target: HLA-B*15:01; assay: as above; conditions: source organism: Macaca mulatta
[39] = target: HLA-B*18:01; assay: as above; conditions: source organism: Macaca mulatta
[40] = source organism: Dengue virus 4 Philippines/H241/1956
[41] = source organism: Dengue virus 2 Jamaica/1409/1983
[42] = source organism: Influenza B virus
[43] = source organism: Dengue virus 3 Sri Lanka/1266/2000
[44] = source organism: Salmonella enterica subsp. enterica serovar Typhi
[45] = source organism: Vibrio cholerae
[46] = source organism: Escherichia coli O157:H7
[47] = source organism: Dengue virus 1 Singapore/S275/1990
[48] = source organism: Salmonella enterica subsp. enterica serovar Typhimurium
[49] = source organism: Dengue virus 3 Martinique/1243/1999
[50] = source organism: Dengue virus 1 Brazil/97-11/1997
[51] = source organism: Macaca mulatta
[52] = source organism: Yersinia pestis

Sequence: LSSKPEFCIK
Kd [1, 40]: 10.6 µM

Sequence: VASAGISYKD
Kd [2, 40]: 4.69 µM | Kd [1, 40]: 3.92 µM

Sequence: LTSKELMMAT
Kd [2, 41]: ≥ 29.8 µM | Kd [1, 41]: 1.13 µM

Sequence: KSEPEGTRM
Kd [3, 42]: 3.5 µM | Kd [4, 42]: ≥ 20 µM | Kd [5, 42]: 19.7 µM

Sequence: KAAVEDEEF
Kd [2, 43]: 1.67 µM | Kd [1, 43]: 0.0619 µM

Sequence: FVIDNVHTW
Kd [6, 40]: 0.0548 µM | Kd [7]: 0.00122 µM | Kd [1, 40]: 0.0177 µM

Sequence: RVLNLVENW
Kd [2, 41]: 0.00243 µM | Kd [8]: 0.0213 µM | Kd [1, 41]: 0.00134 µM

Sequence: PSEDEQQGH
Kd [9, 44]: ≥ 20 µM | Kd [10, 44]: ≥ 20 µM | Kd [11, 44]: ≥ 20 µM | Kd [12, 44]: ≥ 20 µM | Kd [13, 44]: ≥ 20 µM | Kd [14, 44]: ≥ 20 µM | Kd [15, 44]: ≥ 20 µM | Kd [16, 44]: ≥ 20 µM | Kd [17, 44]: ≥ 20 µM | Kd [18, 44]: ≥ 20 µM | Kd [19, 44]: ≥ 20 µM | Kd [20, 44]: ≥ 20 µM | Kd [5, 44]: ≥ 20 µM | Kd [21, 44]: ≥ 20 µM | Kd [22, 44]: ≥ 20 µM

Sequence: KAYSEAETF
Kd [3, 45]: 0.0215 µM | Kd [4, 45]: 0.173 µM | Kd [5, 45]: 0.0238 µM

Sequence: IGLTSRATW
Kd [2, 41]: 0.00687 µM | Kd [1, 41]: 0.00611 µM

Kd [23]: ≥ 20 µM | Kd [24]: ≥ 20 µM | Kd [3, 46]: ≥ 20 µM | Kd [4, 46]: ≥ 20 µM | Kd [12, 46]: ≥ 20 µM | Kd [13, 46]: ≥ 20 µM | Kd [15, 46]: ≥ 20 µM | Kd [17, 46]: ≥ 20 µM | Kd [25]: ≥ 20 µM | Kd [18, 46]: ≥ 20 µM | Kd [19, 46]: ≥ 20 µM | Kd [20, 46]: ≥ 20 µM | Kd [5, 46]: ≥ 20 µM | Kd [21, 46]: 1.45 µM
Sequence: EEDAAVDDL

Sequence: KGKRIEPSW
Kd [2, 41]: 0.0131 µM | Kd [1, 41]: 0.0112 µM

Sequence: VMASSVLLW
Kd [26, 47]: 0.113 µM | Kd [2, 47]: 0.00656 µM | Kd [1, 47]: 0.00128 µM

Kd ([18]; source organism: Mus musculus): 0.01 µM | Kd ([27]; source organism: Homo sapiens): ≥ 20 µM | Kd ([28]; source organism: Homo sapiens): ≥ 20 µM | Kd ([29]; source organism: Homo sapiens): ≥ 20 µM | Kd ([30]; source organism: Homo sapiens): ≥ 20 µM | Kd ([31]; source organism: Homo sapiens): ≥ 20 µM | Kd ([32]; source organism: Homo sapiens): ≥ 20 µM | Kd ([33]; source organism: Homo sapiens): ≥ 20 µM
Sequence: WSTIWRQLY

Sequence: NSDYMMWVG
Kd [9, 48]: ≥ 20 µM | Kd [10, 48]: ≥ 20 µM | Kd [11, 48]: ≥ 20 µM | Kd [12, 48]: ≥ 20 µM | Kd [13, 48]: ≥ 20 µM | Kd [14, 48]: ≥ 20 µM | Kd [15, 48]: ≥ 20 µM | Kd [16, 48]: ≥ 20 µM | Kd [17, 48]: ≥ 20 µM | Kd [18, 48]: ≥ 20 µM | Kd [19, 48]: ≥ 20 µM | Kd [20, 48]: ≥ 20 µM | Kd [5, 48]: ≥ 20 µM | Kd [21, 48]: ≥ 20 µM | Kd [22, 48]: ≥ 20 µM

Sequence: NASGNIVSSV
Kd [34]: 0.048 µM | Kd [2, 41]: 0.464 µM | Kd [1, 41]: 0.112 µM

Sequence: SASRAWNVWE
Kd [2, 49]: 0.279 µM | Kd [1, 49]: 0.0539 µM

Sequence: VTAKWLWGF
Kd [6, 50]: 12.8 µM | Kd [26, 50]: 0.241 µM | Kd [35]: 13.9 µM | Kd [1, 50]: 0.059 µM | Kd [36]: 0.417 µM

Kd ([18]; source organism: Pomacentrus moluccensis): 0.0016 µM | Kd [27, 51]: ≥ 20 µM | Kd [28, 51]: ≥ 20 µM | Kd [29, 51]: ≥ 20 µM | Kd [37]: ≥ 20 µM | Kd [30, 51]: ≥ 20 µM | Kd [31, 51]: ≥ 20 µM | Kd [38]: ≥ 20 µM | Kd [32, 51]: ≥ 20 µM | Kd [39]: ≥ 20 µM | Kd [33, 51]: ≥ 20 µM
Sequence: SAEVVTLWY

Sequence: LSSLLKNDVP
Kd [2, 50]: 7.26 µM | Kd [1, 50]: 0.819 µM

Sequence: LYILGLFKF
Kd ([10]; source organism: Orthohantavirus hantanense): 0.115 µM

Sequence: GAVFTEENQW
Kd [1, 49]: 0.0226 µM

Sequence: ILIGVIITW
Kd [2, 41]: 0.352 µM | Kd [8]: ≥ 23.5 µM | Kd [1, 41]: 1.53 µM

Sequence: TSDGFINGW
Kd [3, 52]: 0.251 µM | Kd [5, 52]: 0.088 µM
